In the DeepSol protein solubility set:

Test: soluble on expression in E. coli; label from the status in PepcDB or PDB records

| Sequence | soluble on expression in E. coli |
| --- | --- |
| MAHHHHHHMFSRTGFRCAPVVEDVVAAFKVLGLAYNPRAPASSRPGVDDVRRQYLEMARLHHPDLSSGDDNRMKVINTAYELIQSSGILHGAYDAPAGAREGVAGQQGGEAGTATRFARKAGARRRRMPDDFASGDDSSWSMKTSLDWQAIMNSTETLSDEEMKNPANHPFSHSKFFTFEDDLTIYRMICGGATVRQVARSLGKPATFIERRLQNAQFKLRVQYVLRQDKRKSTAASSNGAASSGSMQQTTSTTITEPATRRALRRSPYEDAHVSSTVRKREWEPSYPEWRAPRYRDQMTLEEQGRLDGLLRETPRAAHAAGKSVSSLHSARRSAASKMGRSYENYKRLRPSF | not soluble |
| MAHHHHHHMGFFKKNKRQSFNRNYEGEVQCNNIILGGTFYKHCENDLLLKNELENLVPYFNGRIFLENKEEIGKVDEILGPINEFYFSVKLKEGIRAKSFSSDTHFFIDKSQTLPLSRFLPQEKNSQSLVKKKKKKSNRDKKKNSFNQNNKKPNNYNFKGNNNRNDHNNRNDHNNRNDHNNRNDHNNRNDRNNRNNKNSFRNRSNSSRKFNNQRGRF | not soluble |
| MAHHHHHHMGGDVTFSLTKTRDTFADWFDAIMDAAELVDRRYPVKGCVVFRPYGFFMENAIMRLCEEEYAKVGISQILFPTVIPESFLKKESDHIKGFEAECFWVEKGGLQPLEERLALRPTSETAIYSMFSKWVRSYKDLPLKIHQTCTIFRHETKNTKPLIRVREIHWNEAHCCHATAEDAVSQLSDYWKVIDTIFSDELCFKGQKLRRVCWDRFPGADYSEVSDVVMPCGRVLQTAGIHNLGQRFSSTFDILYANKANESVHPYLTCAGISTRVLACALSIHGDSGGLVLPPLIAPIHVVIIPIGCGKKNNQESDQQVLGKVNEIADTLKSKLGLRVSIDDDFSKSMGDKLYYYELKGVPLRIEVGQRDLANGQCIVVPRDVGKDQKRVIPITEVMKVSSHTTENHELVVKNVIKDELDAYKARLKEKAFAFHNSMVTNCKSFDEIVACIENKGGLARFPFYTTEADGEVWDKKLKDACSAEIRGHNPDENVLPGEVCALSGKPAVCYMYCAKSY | soluble |
| MAHHHHHHMGKHMNNQDFAETEQAARAIRKLLNGEIDTIKLENGNKLKIRSSDEKDDAHKRHNDKTNYSFIDNSEEENVQTNLLRKNETVDAGSKIVEDQEDFYILDNESIEAIANKISMENKFHEFEAEAFAQSLKDIIRSLNN | soluble |
| MAHHHHHHMGKKAEFARSRFKEVRQKREERMQRSRTERDRRHGIDKLERKIGKVVVQRPLPNEAQQALLLAQFAQACRLVAPSTDMCILMRHYAKVAEAAEQKSKSTTMVTTSAPSAKSTTRKRKRDEAEEEEEEAPAAGATFLDTVADALLQTQNAPAVIEEAAASAKDGENALDDDDDDDDTVTVLQDILQDDNGRRVVATLLASLNAVHSSKCEAVAKAVLEQFEENEHLPQHHVACRVMSALAQFGSDPTRQGVLNLLRQRSTTIEGVERLLSDRHTAGTIEQLLKSYSRETAAWLCEALSLSTPVTSPSAAEAGGKKKKAAKQRDAAAEETASGERITTEKLMELVNGPVSGQVLLQLLHTDARRELLKRLPIVELLRSKRGTTFLTQLLMSTASVASSKGDEGREAEAVALFSDVLERLGNDLGEMAIDKRANFVVQALIQLLPAMGPQSAKQLERLERGLGGAAGISALVAHGNGVHVVLSLIDAALTLSSESAVEGLAEQLVTRQNVTDLLYHKHGSLVVRRLMPLISRKASKVGRLLQGMVEQDFSNLVYTEAGNLVVTAYLTALGKSGASLLAQKLAGGEELLSMCRSPYASHVVFTLFELVDPITHTLLCNALKAHVLPLSIHVNGRFIVEKMIAASRDVRESVSRQFLSLAQERGTQHVLCALLARMDARGKQACVEKTIMPNLTALATHQCGSIVLQKLMQAEPTVLSAVRQRLSANSLVRSDLAQNFFGKFVVQIAQQPEQEQPQ | soluble |
| MAHHHHHHMGLVDAYDRAATTEIANESLKDVRPDIVHQCLLALFDSDLAYQHRLRVYMSLFVRQGKVIEVSPALRPPRTYARFRGLMSALLRDGRICSTDGQVLMRLMPGSVAPIIPHGAEVVGLTNSLSSPVVTATQLAQQAVAAPVDDSLQGGIKHVTAFYCISCTDDCNLDGIDYITKSVCLSAYPMTAHVQCARVCEGHTRVEPASSVSGSAAGMGVGGGQAKTDRCSAPEPPKRRGEVFPANQAEDNKL | not soluble |
| MAHHHHHHMGRKKRKLNIDLKPFCYYCDREFDDEKILIQHQKAKHFKCLHCNRKLDMANGLVVHMMQVHKTNLKSVPNALPKRNDPELVIRGMNGVPTDIIEENLIKLKQKLGDKNIKRQQRVNWAQVTMAPTMEQFLKQAQMGNFSFPGFNSPVLPTNNNILTNTLDINNKSTLPNIPLYIPNTTSNINNINNINNLLQQPIGNNIIYPPKNSTLLNMPIPPINKNNINNHVVTNPNTFTPSNIPPNIAHKYSANINLLPTNINQHNPMYMPPGLYPPPIPPLNHPSIPPTHIPSSTYPTKMTPIQQKRPSTKWDVPEPSEGDPSILKHNKEDSTENKNEEPHKVSQDDDLKQNEQKDNQEKNHTQNCE | not soluble |
| MAHHHHHHMGTLEAQTQGPGSMIFNVLTIFPQMFPGPLGVSNLGSALKKGLWTLNVFDIRAFANNKHNTVDDTPYGGGPGMLLRADVLGRCIDEVLSLHPNTKLMFTSPRGVSFTQDIARQTMNFDNITLLCGRFEGIDERVVDFYKLQEVSIGDYVLSGGELAAMVIIDTCVRMVPGVIGNAESLKQESMEGSLEYPQYTRPASWKGMEVPEVLLTGNHGEIEKWRRNASLSITAARRPDLLKDRYGENDVE | soluble |
| MAHHHHHHMGTLEAQTQGPGSMLTYFHPDQSLHHPRTYFSRGRMRMPQEVPERAARLVAAAFAMGFPVREPDDFGIAPIAAVHDTHYLRFLETVHREWKAMPEDWGDEAMSNIFVREPNALRGVLAQAARHLADGSCPVGEHTWRAAYWSAQSALAAAAAVRDGAPAAYALCRPPGHHARVDAAGGFCYLNNAAIAAQALRARHARVAVLDTDMHHGQGIQEIFYARRDVLYVSIHGDPTNFYPAVAGFDDERGAGEGLGYNVNLPMPHGSSEAAFFERVDDALRELRRFAPDALVLSLGFDVYRDDPQSQVAVTTDGFGRLGHLIGALRLPTVIVQEGGYHIESLEANARSFFGGFGALRG | soluble |
| MAHHHHHHMGTLEAQTQGPGSMQVKLSQERAKELAENASFIASPGKGILAADESTGTIQKRFDNVGVENTEKNRAEYRSILFTTKGLGKYISGCILFEETLFQQAPNGQNMVDLLRAEGILPGIKVDKGLVTIPNTDEEVSTTGLDGLAERCQKYYNAGARFAKWRAVLSIDVKKNKPSNLSILETAHTLARYAAICQENGLVPIVEPEILADGDHSIEVCAEVTERVLAAVFKALNDHKVLLEGALLKPNMVTQGVDCKDKPAPQTVGFLTSRALRRTVPPALPGVMFLSGGQSESMATRHLNEINKCNKHPWSLSFSYGRALQSSVLKTWNGSMSNAAAAQDVLMKLAQQNSEASLGSLKTDLSDDGESLFEAKYIY | soluble |
| MAHHHHHHMGWFRSSASPEAGTATAEAPAAAAEHGSQHRQPQPEANSPAPLTEAEQLDLLVAGARLDDTEAQDTARFLGSNRRHMYADGLLSCAAYTFSGLHHIQGQSSALTLLTMWTVGTTFLVDVAERKYLQESLQGTLRTAKTTSEAEKPLLLDQPPHNATPASTPRKAAVVPAMPTSSDSLSSAIKKPAPRDKEKLAEQQRKVFLTQAVASWLWMLASFQQFKVHKRLKWCGYSSWMGLGCAGYYTTRHLYNLLVK | soluble |
| MAHHHHHHMHDANRFGGRTAYLREIGPIDHKKKGRLFKRDLPTLQFNVDVWCAQQTLRKQWKGRDWDVVEMPFEMAPKELQRVVPEKYTDVPIMTDPARHDYMNIRRKVFDREDMQDALFASGGAGQSPYPAIQRVDKAAMTLDKYL | soluble |
| MAHHHHHHMHRASRIAAAPFKSVLRRHKHHPEGLPLYNEMSKQWLCREGERWWILDAKGEQLPRVAAVAAQYITGQHRPDFTPGMISGDHVIIVNIKDVVMVGDEWIRVPITWQTAYPGGKYRIRLTDMYERDPCMLMWWFLKDEVNRHFVRKLKTRVAPLEKAWLYEDSVHPHGEKNPRPLCWSDPVVRGWKYTDPQFIRRWKPNEFIT | not soluble |
| MAHHHHHHMHSRTAPPLPPHTFAQVLHDRFVHYNDGKNKQTNIKRRNANNLNSFSYTAARAQGVVPRVDSTLGLLWTWRWAGAYGVACVCVCLCAADKMSAARHSHPPPPSLSRCRFPPPALFIMHRAHTYLLCIAAHLLLSPPPPSSPSRFVFASSSLSCPGCAFSWVTRFVSSMLRRTLCCGMMQLHALPTPNPLCHTFTIPADSFESFVPQGQSCEVAHRGLAWVHPLSQGLFEQYPQELMSVFIAPRHVSISVYTNVDWSKIEWSISSFLGHYLIFTNACISPAKEYTLMEDDLELKDTDTEVLQCIKELLREQVRPMVQRDGGDVKLLNFNEKTGIVSLAMLGACKTCPSSQNTLKDGIERVMKHFVPEVTEVIEDKEHQFYEDYGLLFDSEKALFKEAARLDRERQAKLRHNLTPMVLSYEVLNEPDGD | not soluble |
| MAHHHHHHMHSSPSKKKDLSNGACPAKEKEASKRKQSFNDVELEIDDDIITHLSSRICNKNVTHKILKINNLIDDQMHDYIANGRASEISESNDESDAHEGVERAHLNLRNGYAGCQHGDESSSNTISNDLPERKAISSEQVPTYELNKEVQGKSKAKGKGKGKGELLSDDPHLEEPLAEGHTHFDRIKMMNLLGENTIVYNSRDDQNNVLFLCYDEKSEQCDVCDRYRKNYMSNMHPSSCVPLRGGAAMKGDAAINGNAPINGVAATNGAAAINGTAAIDALSDYFFVLGSTSNSRKYILKQSSLDFLSVRIHIDEKKIGCRKSHDPLTLTANIAVGKGLKLLNMIKTDSELSKQIAELSKGKKVVLLVGDEVIYCNNKIYEKPKNEKEASNFLKSYNNSKCYSYSSITLIELETEKIITGIDESIINVYDMDDSVVKKILDDSSIYFCAGALKIENTHMHRYIKVIKGNIDSIFGLSLNLLFHLVNFL | not soluble |
| MAHHHHHHMHTKHTRRPVDTHKRNTMPLIRPGMPKPPQGFDVVLAKLEEYDEQMKLATQEESKGVVGVTTRPRHSGGFGARKRMRDDDANAEDGTVAPPAEASSTVAAAESEAGTSTAGDDNAEAKEEPPIPPLWRMAAINRARTRYVFLAYYKQHIISKEVYDYCVDTRLIDGGLARRWRLPGYERLCCTACGVPGAASLAASITSKYALRDRQERRLTTSASQQRIHDTATCLCRVPAAQRRSKHFVACAACGCHGCCSADAMKGPKEGDGGEKTDKTREEPSVNAPGRGEA | not soluble |
| MAHHHHHHMIDLTGKTSLITGASSGIGSAIARLLHKLGSKVIISGSNEEKLKSLGNALKDNYTIEVCNLANKEECSNLISKTSNLDILVCNAGITSDTLAIRMKDQDFDKVIDINLKANFILNREAIKKMIQKRYGRIINISSIVGIAGNPGQANYCASKAGLIGMTKSLSYEVATRGITVNAVAPGFIKSDMTDKLNEKQREAIVQKIPLGTYGIPEDVAYAVAFLASNNASYITGQTLHVNGGMLMV | soluble |
